The values below come from article PMC9973045, “The Drug-Induced Interface That Drives HIV-1 Integrase Hypermultimerization and Loss of Function” (mBio, 2023).

This data set deals with the molecule itself. Description: SEC-MALS; SEC-MALLS of isolated CTDs; Superdex-75 Increase 10/300; 0.5 M NaCl, 25 mM Tris-HCl pH 7.5, 3 mM NaN3, 0.5 mM TCEP; 25°C; loaded at 8, 4, 2, 1 or 0.5 mg/mL; dimer to monomers. For orientation: SEC sorts molecules by how far they enter the pores of the column.

What is called stoichiometry N is a count of units in the complex or per binding partner.

B1: isolated HIV-1 IN CTD (wild type), IN residues 220 to 270 (domain or fragment)
chain: IQNFRVYYRDSRDPVWKGPAKLLWKGEGAVVIQDNSDIKVVPRRKAKIIRD
notes: HIV-1 integrase (IN) carboxyl-terminal domain, residues 220 to 270, lacking the C-terminal tail; numbers count on: the mature integrase (IN residues); A prior drug-free HIV-1 IN CTD structure is cited as PDB 6T6E; also called carboxyl-terminal domain; source: E. coli BL21-CodonPlus (DE3), purified (Ni-NTA, HiTrap SP, SEC); not shown: His6-Sumo, N-terminal, cleaved
In the case of B1, the “stoichiometry N” value is 2.
